This note sets out measurements from article PMC9060444 (2022).

Test [1] deals with human complement C1 complex (human) (UniProt P02745).
The target of test [2] is human C1s enzyme (activated C1s) (human). The test can be described thus: ELISA; ELISA-type binding assay: GST-fusion proteins on wells coated with human C1 complex, C1q, C1r enzyme or C1s enzyme; apparent KD by nonlinear regression (GraphPad Prism).
Test [3] addresses human C1r enzyme (activated C1r) (human). Described as above.
Test [4] has as its target human complement C1 complex (human) (UniProt P02745). The description is as above.
The target of test [5] is GST-ElpQ (B. burgdorferi strain B31). The test can be described thus: SPR; Biacore T200; GST-ElpB or GST-ElpQ immobilised on the sensor chip; C1 complex (twofold series 0.6 to 150 nM), C1r or C1s enzyme or proenzyme injected as analyte; steady-state affinity fits; triplicate.
In test [6] the target is GST-ElpB (B. burgdorferi strain B31). The test is described as above.
The target of test [7] is human C1s enzyme (activated C1s) (human).
Test [8] deals with T1, human C1s enzyme (activated C1s) (human).
T1 chain 1: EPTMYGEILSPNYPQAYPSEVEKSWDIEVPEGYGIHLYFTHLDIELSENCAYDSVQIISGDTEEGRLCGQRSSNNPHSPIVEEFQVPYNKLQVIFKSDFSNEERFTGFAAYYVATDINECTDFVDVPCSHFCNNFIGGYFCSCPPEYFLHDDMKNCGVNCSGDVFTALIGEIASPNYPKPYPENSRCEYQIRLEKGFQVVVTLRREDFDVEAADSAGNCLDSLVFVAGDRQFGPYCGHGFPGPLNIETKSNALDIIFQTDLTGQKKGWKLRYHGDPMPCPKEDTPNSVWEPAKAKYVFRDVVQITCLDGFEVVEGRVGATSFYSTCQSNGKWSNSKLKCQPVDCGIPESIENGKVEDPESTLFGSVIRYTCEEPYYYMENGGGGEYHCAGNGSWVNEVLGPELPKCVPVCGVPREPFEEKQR
T1 chain 2: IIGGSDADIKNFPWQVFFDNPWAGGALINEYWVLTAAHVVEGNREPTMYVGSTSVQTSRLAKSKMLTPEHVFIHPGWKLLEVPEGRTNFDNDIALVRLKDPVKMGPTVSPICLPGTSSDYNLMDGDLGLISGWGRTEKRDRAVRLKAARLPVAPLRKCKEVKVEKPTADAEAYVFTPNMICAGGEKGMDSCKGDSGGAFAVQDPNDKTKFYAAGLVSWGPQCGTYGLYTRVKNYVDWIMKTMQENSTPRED
Briefly: SPR.

On to BBK32-C (domain or fragment), for which the IC50 of inhibition of C4b deposition from normal human serum on IgM-coated wells (ELISA); by the table's footnote based on the non-GST-tagged BBK32-C construct in test [1] turned out to be 18 nM.

“GST-BBK32 (from UniProt O50835 1-354) (natural protein)”: in test [1], the IC50 of inhibition of C3b deposition from normal human serum on IgM-coated wells (ELISA) turned out to be 29 nM, the IC50 of inhibition of C5b-9 deposition from normal human serum on IgM-coated wells (ELISA) is 100 nM and the IC50 of inhibition of classical-pathway lysis of antibody-sensitised sheep erythrocytes by normal human serum was 79 nM.

For GST-ElpB (natural protein), in test [2], the Kd came out at 6.7 nM. Further, the Kd in test [3] was 41 nM. Also, in test [4], the Kd worked out at 3.4 nM. Besides, in test [1], the IC50 of inhibition of C3b deposition from normal human serum on IgM-coated wells (ELISA) came out at 570 nM, the IC50 of inhibition of C4b deposition from normal human serum on IgM-coated wells (ELISA) came out at 330 nM, the IC50 of inhibition of C5b-9 deposition from normal human serum on IgM-coated wells (ELISA) came out at 300 nM and the IC50 of inhibition of classical-pathway lysis of antibody-sensitised sheep erythrocytes by normal human serum worked out at 1600 nM.

Regarding GST-ElpQ (natural protein), the Kd in test [2] came to 4.7 nM. For the same molecule, the Kd in test [3] came to 11 nM. In test [4], the Kd was 3.8 nM. In addition, in test [1], the IC50 of inhibition of C3b deposition from normal human serum on IgM-coated wells (ELISA) came to 450 nM, the IC50 of inhibition of C4b deposition from normal human serum on IgM-coated wells (ELISA) is 260 nM, the IC50 of inhibition of C5b-9 deposition from normal human serum on IgM-coated wells (ELISA) amounted to 1000 nM and the IC50 of inhibition of classical-pathway lysis of antibody-sensitised sheep erythrocytes by normal human serum amounted to 1500 nM.

As for human C1r enzyme (activated C1r), the figures for the Kd in test [5] and in test [6] were 97 nM and 100 nM, respectively.

As for human C1s enzyme (activated C1s), the values for the Kd in test [5] and in test [6] were 4.5 nM and 3.9 nM, respectively.

As for human C1s proenzyme, the Kd in test [5] is 170 nM; in test [6], 270 nM.

In test [6], “human complement C1 complex (from UniProt P02745 23-245; P02746 28-253; P02747 29-245)” yielded a Kd of 5.6 nM.

tagless ElpB (natural protein): the IC50 of inhibition of the cleavage of C2 by C1s enzyme (SDS/PAGE) in test [7] amounted to 870 nM.

As for tagless ElpQ (natural protein), in test [7], the IC50 of inhibition of the cleavage of C2 (685 nM) by C1s enzyme (6.25 nM), SDS/PAGE densitometry of C2b, ElpQ 16 to 0.13 uM, 1 h at 37 C came to 1400 nM and the IC50 of inhibition of the cleavage of C4 (616 nM) by C1s enzyme (6.25 nM), SDS/PAGE densitometry of C4 alpha', ElpQ 25 to 0.20 uM, 1 h at 37 C is 11000 nM.

B1: tagless ElpQ (natural protein)
chain: CKNFATGKDIKQNSEGKIKGFVNKILDPVKDKIASSGTKVDEVAKKLQEEEKEELMQGDDPNGSGINPPPVLPENIHNNALVLKAIEQSDGQQEKKVEEAEAKVEENKEKQENTEENIKEKEIIDEQNKQELAKAKEEEQQKEQKRHQEEQQRKAKAEKEKREREEAEQQKRQQEEEEKRQVDNQIKTLIAKIDEINENIDVIKWQTTVGPQGVIDRITGPVYDDFTNGNNSIRETWEGLEEESEDEGLGKLLKELSDARDALRTKLNEGNKPYTGYEEPKLKESVNVSEIKEDLEKLKSKLEEVKKYLKDSSKFEEIKGYISDSQ
B1 came in with a Kd in test [8] of 15 nM.

B2: GST-ElpQ (natural protein)
chain: CKNFATGKDIKQNSEGKIKGFVNKILDPVKDKIASSGTKVDEVAKKLQEEEKEELMQGDDPNGSGINPPPVLPENIHNNALVLKAIEQSDGQQEKKVEEAEAKVEENKEKQENTEENIKEKEIIDEQNKQELAKAKEEEQQKEQKRHQEEQQRKAKAEKEKREREEAEQQKRQQEEEEKRQVDNQIKTLIAKIDEINENIDVIKWQTTVGPQGVIDRITGPVYDDFTNGNNSIRETWEGLEEESEDEGLGKLLKELSDARDALRTKLNEGNKPYTGYEEPKLKESVNVSEIKEDLEKLKSKLEEVKKYLKDSSKFEEIKGYISDSQ
B2 displayed a Kd in test [8] of 16.5 nM.
